Test: yeast display, Sf9 membrane polyspecificity reagent, FACS + sequencing; frameworks hold sequencing errors
In short: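 Sorting gates, low and high (top ~1%), were placed on anti-HA fluorescence to track expression and on streptavidin fluorescence to track reagent binding. A clone's polyreactivity label is taken from the gate it came out of. The reagent was 10% biotinylated, detergent-solubilized Sf9 membrane, applied for 1 hour at 4 °C to galactose-induced yeast display cells.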

| Sequence | polyreactivity (PSR sort gate) |
| --- | --- |
| QVQLVESGAGLVEAGASLRLSCAASGSNFRINAMGLYRQAPGKERELVAAITASGGSTYADSVKGRFTISRDNAKNTVYLQMNSLKPEDTAVYDCAARYFPRHRYYFWGQVTQVTVSS | high polyreactivity |
| QVQLVESGGGLVQAGGSLRLSCAASGYTFHGYSMGWYRKAPGKERELVAVITQRGGSTSYADSVKGRFTISRDNAKNTVYLQMNSLKPEDTAVYYCNASAWLVVARTRYGYWGQGTQVTVSS | low polyreactivity |
| QVQLVESGGGLVQAGGSLRLSCAASGRTFDSYAMGWYRQAPGKERELVAAISRAGGTNYADSVKGRFTISRDNAKLTVYLQMNRLKPDDTEVYYCAVRQAVYGLRSDFYYWGQGSQVTVSS | high polyreactivity |
| QVQLVESGGGLVQAGGSLRLSCAASGLTFSWNAMGWYRQAPGKERELVAAISSRGGSTYYADSVKWRFKISRDNAKNTVYLQMNSLKPEDTAVYYCNAHGRRFLGDYGYWGQGTQVTVSS | low polyreactivity |
| QVQLVESGGGLVQAGGSLRLSCAASGSTFLYNAMGWYRQAPWKERELVAAISWSGGSTYYADSVKGRFTISRDNAKNTVYLQMNSLKPEDTAVYYCAAEQRRFTGYDYWGQGTQVTVSS | high polyreactivity |
| QDQLVESGGGLVQAGASLRLSCADSGFTFTTNAMGWYRHAPGKERELVAAISFSGGTTYYADSVKGRFTISRDNAKNTVYLQMNRLKPEDTAVYYCAAQPGQAWWSTDHDDYWGQGTQVTVSS | low polyreactivity |
| QVQLVESGGGLLQAGGSLRLSCAASGRIFRYYAMVWYIQAPVKERELVAGISWTGGTTYYADSVNGRFTISLDNAKNSVYLQMYSLKPEDSAVDYCIVRRSTLYDYWGQGTQVTVSS | high polyreactivity |
| QVQLVESGGGLVQAGGSLRLSCAASGRTFGSYVMGWYRQAPGKERELVAAISWSSGITYYADSVKGRFTISRDNAKNTVYLQMNSLKPEDTAVYYCAARIWDSRAYYYWGQGTQVTVSS | high polyreactivity |
| QVQLVESGGGLVQAGGSLRLSCAASGFTFDSYAMGWYRQAPGQERELVPAISSSSSTNYADSVKGRFTISRDNAKNTVYLPLNSLKPEDTAVYYCNADSPEGYRLLDYWGQGTQVTVSS | low polyreactivity |
| QVQLVESGGGLVQAGGSLRLSCAASGRIFGLYAMGWYRQAPGKERELVAAISSRGGNTYYADSVKGRFTISRDDAKNTVYLQMNSLKPEDTAVYYCARDSYSLSRTYDSWGQGTQVTVSS | high polyreactivity |
| QVQLGESGGGLVQAGCSLRLSCAASGSIFIAYDMGWYRQAPGKERELVAAISIIDGSTYYADSVKRRFTISRDNAKNTVYLQMNSLKPEDTAVYYCSTRVFYLYDYWGQGTQVTVSS | low polyreactivity |
| QVQLVESGGGLVQAGGSLRLSCAASGITFYRYVMGWYRQAPGKERELVAAITSRGGSTSYADSVKGRFTISRDNAKNTVYLQMNSLKPEDTAVYNCAADLSGWGRDARGAYDYWGQGPQVTVSS | high polyreactivity |
| QVQHVESGGGLVQAGGSLRLSCAASGSIFYYYTMGWYRQAPGKERELVAAITSGGSTYYADSVKGRFTISRDNAKNTVYIQMNSLKPDDTAVYYCAAEYHSFLWDMDYWGQGTQVTVST | high polyreactivity |
| QVQLVESGGGLVQAGGSLRLSCAASGRTFYDYAMGWYREAPGKEMELVASIRGSDGSTYYADSVKGRFTISRDKAKNTVYLQMNSLKPEDTSVYYCAARGFYGTNGRVYITSYYYLGQGTQVTVSS | high polyreactivity |
| QVQLVESGGGLVQAGASLRLSCAASGNILVGNDMGWYRQAPWKERELVAAISSGDTTSYADSVKGRFTISRDNAKNTVYLQMNSLKPEDTAVYYCAVDRSLSPFAYDYWGQGTQVTVSS | low polyreactivity |
| QVQLVESGGGLVQAGGSLRLSCAASGSTFQSYAMGWYRQAPGKERELVAAISTSDTDRTYYADSVKGRFTISRDNAKNTVYLQMNSLKPEDTAVYYCNADGYSHGDWYGYWGQGTQVTVSS | low polyreactivity |
| QVQLVESGGGLVQAGGSLRLRCPASGRIIGSYTMGSYRQAPGKERELVAAISFSGARTRYADSVKGRFTISRDNAKNTVYFQMNSLKAEDTAVYYCAARFTGGKYDYWGLGTQVTVSS | high polyreactivity |
| QVQLVESGGRLVQAGGSLRLSCAASGSIFRFNTMGWYRQAPGKERELVAVIRYRSGSTYYADTVKGRFTISRDNAKYTVYLQMNSLKPEDTAVYYCAAKRRSTYDYWGQGTQVTVSS | high polyreactivity |
| QVQHVESGGGLVQAGGSHRLSCAASGSTFGSNDMRWYRQSPGKERQLVAAIRGIVGSTYYADSVKGRFTISRDHAKNTVYLQMNSLKPEDTAVYYCNKAEVSTYYQSSSTYGGYDYWGQGTQVTVSS | low polyreactivity |
| QVQLVESGGGLVQAGGSLRLSCDASGSTFAAYAMGWYRQAPGKERELVAAISRSGGTTYYADSVKGRFTISRDNAKNTVYLQMNSLKPEDTAVYYCAAELSLGNYWYDYWGQGTQVTVSS | high polyreactivity |
| QVQLVESGGGLVQAGGSLSLSSAASGRPFIRNAMGWSRQAAGKERELVAGINSGGITNYADSVKGRFTISRDNAKNTVYLQMNSLKPVDTAFYYCNARQVLYGLYLRAYPYEYWGQGTQVTVSS | low polyreactivity |

| Sequence | polyreactivity (PSR sort gate) |
| --- | --- |
| QVQLVESGGGLVQAGGSLRLSCAASGFTFSLYAMGWYRQAPGKERELVASISRSGGSTYYADSVKGRFTISRDNAKNTVYLQMNSLKPEDTAVYYCAARWRPYKYDSWGQGTQVTVSS | high polyreactivity |
| QVQLVESGGGLVQAGGSLRLSCAASGRIFWYYAMGWYRPAPGKERELVATISYGGGNTYYADSVKGRFTISRDNAKNTVYLQMNSLKPEDTAVYYCARVPYAYLPYKPFQQYSYDYWGQGTQVTVSS | high polyreactivity |
| QVHLVESGGGLVQAGGSLRISCAASGRTFYIYAMGWYRQAPGKERELVAAISWGSGSTYYADSVKGRFTISRDNAKNTVYLQMNSLKPEDTAVYYCAADYAYPSEWTYDYWGQGTQVTVSS | low polyreactivity |
| QVQLVESGGGLVQAGGSLRLSCAASGRIFSYYAMGWYRQAPWKERELVAAISSSGGSTYYADSVKGRFTISRDNAKNTVYLQMNSLKPEDTEVYYCAKLLYGFGRYGYWGQGTQVTVSS | high polyreactivity |
| QVQLVESGGGLVQAGGSLRLSCAASGSIFYYNAMGWYRQAPGKERELVAVISYRSGRTSYADSVKGRFTISRDNAKNTVYLQMNSLKPEDTAVYYCIAKPAVSFSRHYYRYDYWGQGTQVTVSS | high polyreactivity |
| QVQLVESGGGLVQAGGSLRLSCAASGRIFERNAMGWYRQAPGKERELVAAITYNGGRTYYAVSVKGRFTISRDNAKNTVYLQINSQKPEDTAVYYYNAQSRVTRSSYRGSPRYDYWGQGTQVTVSS | high polyreactivity |
| QVQLVESGGGLVQAGGSLRLICAASGYTFPYAMGWYRQAPGKERELVAAISRSGASTYYADSVKGRFTISRDNAKNTVYLQMNSLKPEDTAVYYCATRRVYSTRVKFYYWGQGTQVTVSS | high polyreactivity |
| QEQLQESGGGLVQACGSLRLSCAASGYIFSHQYMGWYRQAPGKERELVASISPRATTNYADSVKGRFTISRDNAKNTVYLQMNSLKPEDTAVYYYAVYQILDRRLSYWGQGTQVTVSC | high polyreactivity |
| QVQLEESGGGLVQAGGSLRLSCAASGFTFTDYALGWYRQAPGTERELVAVITYDSTYYADPVKGRFTISRDNAKNTVYLQMNSLNPEDTAVYFCAADSYDWGDFDYWGQGTQVTVSS | low polyreactivity |
| QVQLVESGGGLLQAGGSLRLSCAASGSIFTSNAMGWYRQAPGKERELVAAITRGGNTNYADSVKGRFTISRDNAKNTVYLQMNSLKPEDTAVYYCATEGFVYSWLWEFEYWGQGTQVTVSS | low polyreactivity |
| QVQLVESGGGLVQAGGSLRLSCAASGRIFNRYAMGWYRQAPGKERELVAAISSRGGSTFYADSVKGRFTISRDIAKNTVYLQMNSLKPVDTAVYYCATAWHRGVRGRTSGAFDYWGQGTQVTVSS | high polyreactivity |
| QVQLVESGGGLVQAGGSLRLSCAASGLTFTKYAMGWYRKAPGKEREFVASISWNGGDTYADSVKGRFTISRDNAKNTVYLQMNSLKPEDTAVYYCAARRTQQKVYYWGQGTQVTVSS | high polyreactivity |
| QVQLVESGGGLVQAGGSLRLSCAASGFTFPYYAMGWYRQAPGKERELVAAITGRGGSTYYADSVKGRFTISRDNAKNTVYLQMNSLKPVDTAVFYCNAVRFAIHLADPYDYWGQGTQVTVSS | high polyreactivity |
| QLQLVESGGGLVQAGGSLRLSCAASGRIFRRYTMRSYRQAPGKERELVAAITWKGGRTSYADSVKGRFTISRDNANNTVYLQMNSLKPQDTAVYYCAAECPSRYHTFEFWGQGTQVTVSS | high polyreactivity |
| QDQLVESGGGLVQAGGSLRLSCAASGSTFPYNVMGWYRQAPGKEREFVAAISSSSGSTYYADSVKGRFTISRDNAKNTVYLQLNSLKPEDTAVYYCARRHPRQRQDGKVDYWGQGTQVTVSS | low polyreactivity |
| QVQLVESGGGLVQAGGSLRLICAASAFTIRRYAMGWYRQARGKERELVAAINWNGDTTYYADSVKGRFTISSDNAKNTVYLQMNSLKPEDTAVYYCATSDYYYDYWGQGTQVTVSS | high polyreactivity |
| QVQLVESGGGLVQAGGSLRLSCAASGSTFNTYAMGWYRQAPGKERELVAAITWRGGRTYYADSVKGRFTISRDNAKNTVYLQMNSLKPEDTAVYYCNTLRPRLDGVYGYDYWGQGTQVTVSS | high polyreactivity |
| QVQLVESGGGLDQAGGSLRLSCAASGFTFPIYAMGWYRQAPGKERELVAAITTRGGRTYYADSVKGRFTISRDNAKNTVYLQMNSLKPEDTAVYYCNAQGYAYRLWFGYWGQGTQVTVSS | high polyreactivity |
| QVQLVESGGGLVQAGGSLRLSCAASGSIYLIYAMGWYRQAPGKERELDAAISRSGGHTYYADSVKGRFTISRDNAKITVYLQMNSLKPEDTAVYYCAAKSYSSGTYGYNYWGQGTQVTVSS | high polyreactivity |
| QVQLVESGGGLVQAGGSLRLSCAASGRTFSRNAMGWYRQAPGKERELVAAITYSGGTTYYADSVKGRFTISRDNAKNTVYLQMNSLKPEDTAVYYCATPSRKSGVGYPSYNYWGQGTQVTVSS | high polyreactivity |
